Laboratory results: PMC4246082, “A Coiled-coil Clamp Controls Both Conformation and Clustering of Stromal Interaction Molecule 1 (STIM1)*” (The Journal of Biological Chemistry, 2014)

Biological target: the molecule itself
Experiment: SEC; Superdex S200 10/300 GL, 4 °C; 100-μl injections of 1.25 mg/ml and 0.25 mg/ml CC3ext; in-line MALS gave no molecular weight because of elution in the void volume

B1: STIM1 CC3ext (residues 388-491) (domain or fragment, human, UniProt Q13586-1 388-491, looked up)
chain: NTLFGTFHVAHSSSLDDVDHKILTAKQALSEVTAALRERLHRWQQIEILCGFQIVNNPGIHSLVAALNIDPSWMGSTRPNPAHFIMTDDVDDMDEEIVSPLSMQ
notes: STIM1, human, residues 388-491 (CC3ext); Subcloned into pET-28a via NheI and XhoI; monomer 12.2 kDa on SDS-PAGE; also called recombinant CC3 fragment
- binding result: binds
